What was measured:
[1] = system: Ub(G76V)-GFP-NES, U2OS cells; assay: Imaging of Ub(G76V)-GFP-NES after siRNA or p97 inhibitor; type: cell-based, human; conditions: siRNA 20 nM or p97i (NMS-873) 2 h
Procedure: (§1) U2OS (catalog no. HTB-96) cells were obtained from ATCC. HEK293-EBNA1-6E cells were a kind gift from Yves Durocher (National Research Council Canada, Montreal, Canada). All mammalian cell lines were cultured under standard conditions at 37 °C and 5% CO2 in DMEM (Thermo) supplemented with 10% FBS (v/v) and penicillin-streptomycin (Thermo). Recombination cloning-compatible U2OS cells were generated using the Flp-In T-Rex Core Kit (Thermo) according to the manufacturer’s instructions and maintained under selection using Blasticidin (Invivogen) and Zeocin (Thermo). To generate cell lines stably expressing GFP-VCF1, U2OS Flp-In T-Rex cells (Thermo) were co-transfected with GFP-VCF1 constructs and pOG44 (Thermo) plasmids, followed by selection with Hygromycin (Invitrogen). Single clones were carefully screened for uniform expression of ectopic GFP-VCF1 at low levels and maintained under selection with Blasticidin and Hygromycin. To induce GFP-VCF1 expression, cells were treated with Doxycycline (DOX) (0.5 µg/ml) for 16 h. U2OS cell lines stably expressing Ub(G76V)-GFP or Ub(G76V)-GFP-20AA were described previously. A U2OS cell line stably expressing Ub(G76V)-GFP-NES was generated under G418 (Invivogen) selection. […]
(§2) Mammalian cells grown on coverslips were fixed in formalin buffer (VWR) for 15 min at room temperature (RT). […] Quantitative image-based cytometry (QIBC) was performed as described. […]

p97 (His6-p97 WT) = biological target: T1, p97 (His6-p97 WT) (Homo sapiens, UniProt P55072); assay: SPR: binding to immobilized His6-p97 WT; conditions: N167A mutants; in vitro binding experiments and SPR, up to 300 nM (peptides) or 100 nM (full-length)
T1 construct: Coomassie Blue staining of full-length and truncated His6-p97 proteins purified from E; made in house; host or cells: E. coli BL21(DE3)
Procedure: Surface Plasmon Resonance (SPR)
All SPR experiments were performed at 25 °C on a Biacore T200 instrument equipped with CM5 or CM7 sensor chips (Cytiva, Uppsala, Sweden). SPR running buffers and amine-coupling reagents (N-ethyl-N’-(3-dimethlyaminoproply)carbodiimide (EDC), N-hydroxysuccinimide (NHS), and ethanolamine HCl) were purchased from Cytiva. 1x PBS-P (11.9 mM NaH2PO4-Na2HPO4, pH 7.4; 137 mM NaCl; 2.7 mM KCl; 0.005% surfactant P20) supplemented with 0.5 mM TCEP was used as running buffer for the immobilization and the binding experiments with Strep-HA-VCF1 full-length proteins. For the VCF1 C-terminal peptide binding studies, 2% DMSO was additionally included in the running buffer. Eight solvent correction samples ranging from 1.5% DMSO to 2.8% DMSO prepared in either PBS-P, 0.5 mM TCEP or Tris-based buffer were used to correct buffer/DMSO mismatches. The CM5 chip was used for the kinetic analysis of the interactions between p97 proteins and VCF1 full-length proteins or VCF1 C-terminal peptides. p97 was immobilized at different densities on the carboxymethyl dextran sensor chip surface by amine-coupling chemistry. For kinetic analysis, p97 was immobilized at low density (~400 RU) on flow cells 2 (Fc2) and 3 (Fc3), respectively, of a CM5 chip. […] The dissociation rate of the p97-VCF1 complexes was monitored for 400 s. […] Binding experiments were measured in triplicates. […]

p97 = assay: GFP IP of GFP-VCF1 alanine mutants from U2OS cells; type: binding, human; conditions: full-length GFP-VCF1, U2OS
Procedure: (§3) Immunoblotting was performed as previously described. Immunoprecipitation (IP) of HA-tagged proteins was performed using Anti-HA Affinity matrix (Roche) under denaturing conditions, unless otherwise stated. GFP-trap and […] Fab-trap agarose (Chromotek) were used according to manufacturer’s instructions. Cell lysis was performed using RIPA buffer (140 mM NaCl; 10 mM Tris-HCl, pH 8.0; 0.1% sodium deoxycholate; 1% Triton X-100; 0.1% SDS; 1 mM EDTA; 0.5 mM EGTA) or EBC buffer (50 mM Tris, pH 7.5; 150 mM NaCl; 1 mM EDTA; 0.5% NP-40, 1 mM DTT). IPs were washed in non-denaturing buffer (50 mM Tris-HCl, pH 7.5; 150 mM NaCl; 0.5 mM EDTA). Cell lysis and IP under partially denaturing conditions were performed using denaturing buffer (20 mM Tris-HCl, pH 7.5; 50 mM NaCl; 0.5% sodium deoxycholate; 0.5% NP-40; 0.5% SDS; 1 mM EDTA). All lysis and wash buffers were supplemented with 1 mM fresh PMSF Protease Inhibitor (Thermo), complete EDTA-free protease inhibitor Cocktail Tablets (Roche), 1.25 mM N-ethylmaleimide (Sigma) and 50 µM PR-619 (Calbiochem).

[2] = system: GFP-VCF1 WT / N167A interactome, U2OS cells; assay: GFP IP mass spectrometry, comparison of VCF1 WT and N167A interactomes (WT/N167A); type: binding, human; conditions: stably expressed GFP-VCF1, MS interactome
Procedure: U2OS (catalog no. HTB-96) cells were obtained from ATCC. HEK293-EBNA1-6E cells were a kind gift from Yves Durocher (National Research Council Canada, Montreal, Canada). All mammalian cell lines were cultured under standard conditions at 37 °C and 5% CO2 in DMEM (Thermo) supplemented with 10% FBS (v/v) and penicillin-streptomycin (Thermo). Recombination cloning-compatible U2OS cells were generated using the Flp-In T-Rex Core Kit (Thermo) according to the manufacturer’s instructions and maintained under selection using Blasticidin (Invivogen) and Zeocin (Thermo). To generate cell lines stably expressing GFP-VCF1, U2OS Flp-In T-Rex cells (Thermo) were co-transfected with GFP-VCF1 constructs and pOG44 (Thermo) plasmids, followed by selection with Hygromycin (Invitrogen). Single clones were carefully screened for uniform expression of ectopic GFP-VCF1 at low levels and maintained under selection with Blasticidin and Hygromycin. To induce GFP-VCF1 expression, cells were treated with Doxycycline (DOX) (0.5 µg/ml) for 16 h. U2OS cell lines stably expressing Ub(G76V)-GFP or Ub(G76V)-GFP-20AA were described previously. A U2OS cell line stably expressing Ub(G76V)-GFP-NES was generated under G418 (Invivogen) selection. Clones with low baseline GFP expression were visually screened for low basal GFP expression. All cell lines used in this study were regularly tested negative for mycoplasma infection and were not authenticated.
as §3
GFP-Trap agarose (Chromotek) pulldowns were subjected to partial on-bead digestion for peptide elution, by addition of 100 µl of elution buffer (50 mM Tris, pH 7.5; 2 M urea; 2 mM DTT; 20 µg/ml trypsin) and incubation at 37 °C for 30 min. To carry out alkylation, 25 mM CAA was added to the samples, which were then left to digest overnight at room temperature. Digestion was halted by introducing 1% TFA. Purification and desalting of peptides were done using SDB-RPS StageTips. This process required preparing two layers of SDB-RPS with 100 µl of wash buffer (0.2% TFA in H2O), onto which the peptides were loaded. After centrifugation for 5 min at 500 × g, peptides were washed using 150 µl wash buffer, eluted with 50 µl elution buffer (80% ACN; 1% ammonia) and vacuum-dried.
Liquid chromatography-mass spectrometry (LC-MS) analysis was conducted using an EASY-nLC-1200 system (Thermo Fisher Scientific), coupled with a timsTOF Pro spectrometer and a nano-electrospray ion source (Bruker Daltonik). […]

p97 ATPase = assay: ATPase assay; type: biochemical, human; conditions: p97 25 nM, ATP 375 μM
Procedure: For ATPase assays, 1 ml of 5x assay buffer (250 mM Tris, pH 7.4; 100 mM MgCl2; 5 mM EDTA) was mixed with 3 ml water, 5 μl 0.5 M TCEP and 5 μl 10% Triton X. To 40 ul of this assay buffer, recombinant proteins were added, mixed and incubated for 30 min. Final protein concentrations were as follows: p97 (25 nM), VCF1 (range of 0, 0.025, 1, 10 and 25 nM). The reactions were started by adding 10 μl ATP (final concentration of 375 μM) to the 40 μl reactions in a 96 well plate. After 35 min at room temperature, reactions were stopped by adding 50 μl BIOMOL Green reagent (Enzo Life Sciences). Absorbance at 635 nm was measured after 4 min and the relative ATPase activity calculated. Reactions were performed in duplicates and repeated three times.

[3] = system: p97-UFD1-NPL4 binding to K48-Ub2-7; assay: FLAG IP: p97-UFD1-NPL4 binding to K48-linked ubiquitin chains, purified proteins; type: biochemical, human; conditions: high protein amounts, mild buffer
Procedure: All in vitro binding experiments were performed in EBC or RIPA buffer as indicated. Recombinant Biotin-tagged K48-linked poly-ubiquitin chains (2−7) and K48-linked poly-ubiquitin chains (2−16) were purchased from R&D Systems and Enzo Life Science, respectively. Recombinant proteins were incubated with Strep-Tactin Sepharose (IBA), Glutathione agarose (Gold Biotechnology) or […] Fab-trap agarose (ChromoTek) overnight on an end-over-end rotator at 4 °C, washed six times with EBC or RIPA buffer, and resuspended in 2×Laemmli sample buffer. For p97, VCF1 or p47 pulldowns, antibodies (0.5 µg/sample) were coupled to agarose beads, incubated with recombinant proteins or cell lysates and washed with the indicated buffer. To assess p97-UFD1-NPL4 binding to ubiquitylated proteins in total cell extracts, U2OS cells were lysed in EBC buffer supplemented with protease and phosphatase inhibitors, sonicated and incubated on ice for 10 min. Lysates were cleared by centrifugation for 10 min at 16,100 × g. Cell lysate (40 µg) was added to recombinant proteins in EBC buffer, incubated overnight on the rotator with […] Fab-trap agarose (ChromoTek), and beads were washed six times.

Ub(G76V)-GFP, U2OS cells = assay: QIBC of Ub(G76V)-GFP after siRNA; type: cell-based, human; conditions: siRNA 20 nM, QIBC >10,000 cells
Procedure: as §1, §2

[4] = system: NPL4, U2OS/Ub(G76V)-GFP cells; assay: Immunoblot of siRNA knockdown efficiency; type: cell-based, human
Procedure: All siRNAs (Sigma) were used at 20 nM and transfected with Lipofectamine RNAiMAX reagent (Thermo) according to manufacturer’s instructions. The following siRNA oligonucleotides were used: Non-targeting control (CTRL): 5′-[…]-3′; VCF1(#1): 5’-[…]-3’; VCF1(#2): 5’-[…]-3’; p47: 5’-[…]-3’; NPL4: 5’-[…]-3’; FAF1: 5′-[…]-3′; p97: Dharmacon SmartPool (D-008727).
as §3, with “All lysis and wash buffers were supplemented with 1 mM fresh PMSF Protease Inhibitor (Thermo), complete EDTA-free protease inhibitor Cocktail Tablets (Roche), 1.25 mM N-ethylmaleimide (Sigma) and 50 µM PR-619 (Calbiochem).” left out

T1 sequence (P55072 whole entry, the tested form may be a part): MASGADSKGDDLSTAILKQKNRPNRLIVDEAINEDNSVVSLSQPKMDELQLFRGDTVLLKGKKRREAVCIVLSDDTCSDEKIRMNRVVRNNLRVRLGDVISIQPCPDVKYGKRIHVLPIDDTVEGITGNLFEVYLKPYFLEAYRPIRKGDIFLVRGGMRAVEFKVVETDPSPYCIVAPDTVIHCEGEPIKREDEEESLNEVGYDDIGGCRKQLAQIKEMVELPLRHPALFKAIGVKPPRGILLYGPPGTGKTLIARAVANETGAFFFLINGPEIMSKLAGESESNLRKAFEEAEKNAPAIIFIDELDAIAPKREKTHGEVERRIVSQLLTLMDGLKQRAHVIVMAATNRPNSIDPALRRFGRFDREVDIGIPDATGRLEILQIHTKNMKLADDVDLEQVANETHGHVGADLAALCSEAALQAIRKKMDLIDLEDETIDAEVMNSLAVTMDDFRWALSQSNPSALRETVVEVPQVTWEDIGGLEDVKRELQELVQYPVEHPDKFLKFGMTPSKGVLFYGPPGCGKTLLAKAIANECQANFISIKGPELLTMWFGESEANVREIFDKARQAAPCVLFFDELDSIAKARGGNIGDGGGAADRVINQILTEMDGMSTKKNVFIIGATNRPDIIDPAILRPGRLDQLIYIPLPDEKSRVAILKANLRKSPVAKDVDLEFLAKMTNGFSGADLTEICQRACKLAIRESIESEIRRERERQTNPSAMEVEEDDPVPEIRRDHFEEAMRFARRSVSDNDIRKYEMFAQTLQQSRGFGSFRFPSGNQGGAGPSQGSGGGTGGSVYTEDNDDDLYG

`Cc1cc(OCc2nnc(SC3CCCC3)n2-c2cccnc2)ccc1-c1ccc(S(C)(=O)=O)cc1` [NMS-873] was tested, and the “effect on Ub(G76V)-GFP-NES” value [1] was “strong Ub(G76V)-GFP-NES accumulation”.

For “VCF1 N167A: full-length VCF1 with N167A point mutation in VRM”, the “binding to p97 WT (in words)” value (p97 (His6-p97 WT)) was “abrogated binding to p97”, the “effect of alanine scan on p97 binding” value (p97) was “essential for VCF1 binding to p97” and the “p97 binding of N167A vs WT” value [2] was “strong loss of p97 binding”. For the same compound, the “relative ATPase activity” value (p97 ATPase; 0.025 nM, replicate 1) was 1.034, the “relative ATPase activity” value (p97 ATPase; 0.025 nM, replicate 2) was 0.974 and the “relative ATPase activity” value (p97 ATPase; 0.025 nM, replicate 3) was 1.059. For the same compound, the “relative ATPase activity” value (p97 ATPase; 1 nM, replicate 1) was 1.009, the “relative ATPase activity” value (p97 ATPase; 1 nM, replicate 2) was 1.013 and the “relative ATPase activity” value (p97 ATPase; 1 nM, replicate 3) was 1.024. The “relative ATPase activity” value (p97 ATPase; 10 nM, replicate 1) was 1.046, the “relative ATPase activity” value (p97 ATPase; 10 nM, replicate 2) was 0.967 and the “relative ATPase activity” value (p97 ATPase; 10 nM, replicate 3) was 0.99. The “residual binding of N167A mutant to p97” value [3] was “very weak residual binding to p97”.

For “5’-CACGCCUAAUCCUGUUGACAA-3’ [NPL4 siRNA]”, the “effect on Ub(G76V)-GFP level” value (Ub(G76V)-GFP, U2OS cells) was “increased Ub(G76V)-GFP abundance as expected” and the “reduction in NPL4 abundance” value [4] was ~ 50%.

Reference: article PMC10950897, “VCF1 is a p97/VCP cofactor promoting recognition of ubiquitylated p97-UFD1-NPL4 substrates” (Nature Communications, 2024)
